{"source": "patent US20220089784A1", "about": "(University of California, published 2022)", "binders": {"B1": {"name": "87C78 scFv (scFv, V domains shown)", "VH": "QVQLQESGGGVVQPGKSLRLSCVTSTFTLGTYAMHWVRQAPGKGLQWVAVISYDGRYADYADSVKGRFNISRDNSKNTLYLQMHSLTTEDTALYYCAKAIKAFRPVPPSFHMDVWGIGTTVTVSS", "VL": "DIVMTQSPSSLSASVGDRVTITCRASQGISSYLAWYQQKPGKAPQLLIYKASILKSGVPSRFSGSGSGTEFTLTISSLQPEDFATYFCQQTFDTPLTFGQGTKVEIK", "notes": "human"}, "B2": {"name": "4C1 scFv (scFv, V domains shown)", "VH": "QVQLQESGPGLVKPSQTLSLTCAVSGGSINSGDYYWTWIRQHPGKGLEWIGNIYYTGRTYYNPSLQSRLTMSVDTSRTHFSLKLSAVTAADTAVYYCARGQDTSMVTRNFYYGLDVWGQGTTVTVSS", "VL": "DIVMTQSPSFVSASVGDRVTITCRASQGISSYLAWYQQKPGKAPKLLIYAASTLQSGVPSRFSGSGSGTDFTLTISSLQPEDIATYYCQELSSYPLTFGGGTKLEIK", "notes": "human"}, "B3": {"name": "4C3 scFv (scFv, V domains shown)", "VH": "EVQLVQSGAEVKKPGSSVKVSCKASGNSLNNYAITWVRQAPGQGLEWMGGINPLFGTANYAQKFQDRVTMTADESTNIAYLDLSSLTTADTAVYFCAVGAFTNYPFWGQGTTVTVSS", "VL": "SGLTQDPAVSEALGQTVRITCQGDSLRSYYASWYQQKPGQAPLLVIYAGNNRPSGIPDRFSGSSSGNTASLTITGARAEDEADYYCNSRDSSGNYLFGAGTKLTVL", "notes": "human"}, "B4": {"name": "4C5 scFv (scFv, V domains shown)", "VH": "QVQLVQSGADVKKPGASVRVSCKASGYTISTYAMSWVRQAPGQGLEWMGWISGYNGNTNYAQEFQGRVTMTRDTSTNTAYMELRSLRSDDTAFYYCARVKLTTMVRGGPFDYWGQGTLVTVSS", "VL": "EIVLTQSPSSLSATVGDRVTITCRASQGIRNDLVWYQQKPGKAPKRLTYAASSLLSGVPSRFSGSGSGTDFTLTISSLQPEDFATYYCQQYNSYPPTFGGGTKLEIK", "notes": "human"}, "B5": {"name": "4C8 scFv (scFv, V domains shown)", "VH": "QVQLVESGGGLVQPGRSLRLSCAASGLTLSNYWMNWVRQAPGKGLEWVANIHQDGVEKYYVDSVKGRFTISRDNAKNSLYLQMSSLRAEDTAVYYCARGGKYSNSSAMYQWGQGTLVTVSS", "VL": "DIVMTQSPSSLAASVGDRVTITCRASQSISGYLNWYQQKPGKAPNLLIYAASSLQSGVPSRFSGSGSGTDFTLTISSLQPDDFASYYCQQSYDIPRTFGQGTKVEIK", "notes": "human"}, "B6": {"name": "4C9 scFv (scFv, V domains shown)", "VH": "QVQLVESGAEVKKPGASVKVSCTASGYTFAGYYMDWVRQAPGQGLEWMGRINPKSGDPNYEQKFQGRVTLTRDKSINTVYMELSRLKSDDTAIYYCARSVSGGAFDLWGRGTLVTVSS", "VL": "DIVMTQSPSSLSASVGDRVTITCRASQSINSYLNWYQQKPGKVPRLLIYSASSLQSGVPSRFSGSGSGTDFTLTISSLQPDDFATYYCQQYKRYSSFGQGTKVEIK", "notes": "human"}, "B7": {"name": "8DC2 scFv (scFv, V domains shown)", "VH": "QVQLVQSGAEVKKPGSSVKVSCKTSGGTFRNFAISWVRQAPGQGLEWMGGIIPMFGKGHYAQNFQGRVTITADDSTTTAYMELSSLRYEDTAVYYCARGTRNGSLRDAFDIWGQGTTVTVSS", "VL": "ASVLTQDPSASGSPGQSVTISCTGTSSDVGGYNYVSWYQQHPGKAPKLMIYDVSNRPSEVPDRFSGSKSGNTASLTVSGLQAEDEADYYCSSYAGSNKRVFGGGTKLTVL", "notes": "human"}, "B8": {"name": "8DC3 scFv (scFv, V domains shown)", "VH": "QVQLVQSGGGLVKPGGSLRLSCAASGFTFSSHSMNWVRQAPGKGLEWVSSISSSSSYIYYADSVKGRFTISRDNSKNSLYLQLNSLRAEDTAVYYCARGDHDFRSGYYGMDVWGQGTMVTVSS", "VL": "AELTQDPAVSVALGQTVRITCQGDSLRNYYASWYQQKPGQAPVLVIYGKNIRPSGIPDRFSGSSSGNTASLTITGAQAEDEADYYCNSRDSNGNHYVFGTGTKVTVL", "notes": "human"}}}
{"molecular_target": "T1, BoNT/D (Clostridium botulinum, UniProt P19321 2-1276)", "T1 sequence": "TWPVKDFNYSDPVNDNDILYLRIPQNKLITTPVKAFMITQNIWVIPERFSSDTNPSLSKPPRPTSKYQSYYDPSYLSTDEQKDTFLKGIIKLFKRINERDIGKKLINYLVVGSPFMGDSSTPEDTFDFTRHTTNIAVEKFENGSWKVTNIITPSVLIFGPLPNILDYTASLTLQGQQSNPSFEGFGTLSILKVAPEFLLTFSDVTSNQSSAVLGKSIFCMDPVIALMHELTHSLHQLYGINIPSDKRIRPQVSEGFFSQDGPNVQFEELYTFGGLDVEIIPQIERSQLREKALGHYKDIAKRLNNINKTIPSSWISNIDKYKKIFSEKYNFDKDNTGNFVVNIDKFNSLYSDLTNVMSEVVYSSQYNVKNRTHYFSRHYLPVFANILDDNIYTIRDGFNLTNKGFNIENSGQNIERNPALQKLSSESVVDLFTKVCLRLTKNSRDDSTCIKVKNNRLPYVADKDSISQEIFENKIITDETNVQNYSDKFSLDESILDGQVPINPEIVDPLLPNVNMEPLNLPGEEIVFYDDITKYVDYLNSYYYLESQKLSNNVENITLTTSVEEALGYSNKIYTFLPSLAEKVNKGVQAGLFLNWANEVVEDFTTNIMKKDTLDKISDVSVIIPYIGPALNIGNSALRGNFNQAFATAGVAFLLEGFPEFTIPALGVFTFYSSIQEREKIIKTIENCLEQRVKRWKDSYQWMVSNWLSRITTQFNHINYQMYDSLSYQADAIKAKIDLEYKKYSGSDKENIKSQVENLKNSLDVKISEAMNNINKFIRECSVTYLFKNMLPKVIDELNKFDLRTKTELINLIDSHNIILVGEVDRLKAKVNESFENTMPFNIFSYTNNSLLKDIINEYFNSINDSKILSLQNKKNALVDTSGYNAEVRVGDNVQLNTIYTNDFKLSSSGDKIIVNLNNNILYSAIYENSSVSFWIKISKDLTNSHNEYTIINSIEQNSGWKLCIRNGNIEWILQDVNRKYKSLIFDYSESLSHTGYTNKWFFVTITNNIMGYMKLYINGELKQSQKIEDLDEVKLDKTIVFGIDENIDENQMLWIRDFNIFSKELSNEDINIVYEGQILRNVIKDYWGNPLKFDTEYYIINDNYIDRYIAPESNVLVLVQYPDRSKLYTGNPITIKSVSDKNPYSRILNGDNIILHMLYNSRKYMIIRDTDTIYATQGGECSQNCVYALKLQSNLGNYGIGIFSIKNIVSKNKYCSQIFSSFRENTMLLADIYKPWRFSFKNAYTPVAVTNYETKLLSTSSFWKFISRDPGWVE", "assay": "yeast scFv FACS"}
{"binder": "B1", "binding result": "no binding (tested: ~1 µM)"}
{"binder": "B2", "binding result": "no binding (tested: ~1 µM)"}
{"binder": "B3", "binding result": "no binding (tested: ~1 µM)"}
{"binder": "B4", "binding result": "no binding (tested: ~1 µM)"}
{"binder": "B5", "binding result": "no binding (tested: ~1 µM)"}
{"binder": "B6", "binding result": "no binding (tested: ~1 µM)"}
{"binder": "B7", "binding result": "no binding (tested: ~1 µM)"}
{"binder": "B8", "binding result": "binds"}
{"molecular_target": "T2, BoNT/C1 holotoxin (Clostridium botulinum, UniProt P18640 2-1291)", "T2 sequence": "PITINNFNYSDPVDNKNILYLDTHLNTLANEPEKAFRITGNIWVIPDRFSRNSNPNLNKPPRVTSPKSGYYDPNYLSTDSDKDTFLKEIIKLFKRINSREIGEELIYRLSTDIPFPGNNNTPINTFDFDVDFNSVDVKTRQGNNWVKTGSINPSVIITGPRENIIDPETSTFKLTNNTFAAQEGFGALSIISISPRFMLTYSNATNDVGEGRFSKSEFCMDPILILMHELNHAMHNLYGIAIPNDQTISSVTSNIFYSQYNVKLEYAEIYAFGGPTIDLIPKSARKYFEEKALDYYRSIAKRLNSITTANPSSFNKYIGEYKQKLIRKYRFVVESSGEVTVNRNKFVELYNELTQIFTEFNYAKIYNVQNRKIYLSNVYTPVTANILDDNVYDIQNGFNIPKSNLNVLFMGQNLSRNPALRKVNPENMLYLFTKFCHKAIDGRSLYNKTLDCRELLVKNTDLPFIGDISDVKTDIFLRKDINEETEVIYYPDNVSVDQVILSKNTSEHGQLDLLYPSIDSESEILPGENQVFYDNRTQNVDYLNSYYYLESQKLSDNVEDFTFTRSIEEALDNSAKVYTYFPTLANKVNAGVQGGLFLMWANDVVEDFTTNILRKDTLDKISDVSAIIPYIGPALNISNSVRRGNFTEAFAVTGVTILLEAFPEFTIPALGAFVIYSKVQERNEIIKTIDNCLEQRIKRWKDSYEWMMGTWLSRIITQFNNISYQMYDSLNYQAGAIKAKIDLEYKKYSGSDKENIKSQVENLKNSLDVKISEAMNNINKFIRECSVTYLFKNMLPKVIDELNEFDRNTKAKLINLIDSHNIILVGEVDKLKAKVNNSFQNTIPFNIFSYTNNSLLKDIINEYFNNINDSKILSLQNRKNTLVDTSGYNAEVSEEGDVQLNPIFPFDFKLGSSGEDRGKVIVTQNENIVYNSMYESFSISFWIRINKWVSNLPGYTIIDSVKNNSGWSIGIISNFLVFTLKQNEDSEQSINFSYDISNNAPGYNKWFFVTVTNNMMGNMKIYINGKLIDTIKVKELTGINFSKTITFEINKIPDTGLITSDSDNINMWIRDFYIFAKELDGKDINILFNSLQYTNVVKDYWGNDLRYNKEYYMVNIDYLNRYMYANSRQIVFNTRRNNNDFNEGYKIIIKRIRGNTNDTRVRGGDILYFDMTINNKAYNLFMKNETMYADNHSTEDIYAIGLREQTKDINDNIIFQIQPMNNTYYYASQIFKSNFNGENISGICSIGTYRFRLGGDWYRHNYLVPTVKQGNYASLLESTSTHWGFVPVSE", "assay": "yeast scFv FACS", "units": {"Kd": "nM"}}
{"binder": "B1", "Kd": 1}
{"binder": "B2", "Kd": 2.7}
{"binder": "B3", "Kd": 4.7}
{"binder": "B4", "Kd": 0.143}
{"binder": "B5", "Kd": 51.1}
{"binder": "B6", "Kd": 29.6}
{"binder": "B7", "binding result": "binds"}
{"binder": "B8", "binding result": "no binding (tested: ~1 µM)"}
